B1: C9orf25 (parent)
chain: LARKGSLKNGSMGSPVNQQPKKNN

Variants of: B1
Assay: protein stability index of a GFP-peptide fusion (GPS, HEK-293T) (PSI 1-6); higher = more stable
Conditions: c terminus: a fixed tail appended
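Note: lentivirally expressed fusions sorted by FACS into six bins by GFP to DsRed ratio, PSI derived from sequencing read proportions per bin multiplied by bin number.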

| Variant | protein stability index |
| --- | --- |
| LARKGSLKNGSMGSPVDQQPKKNN | 5.12 |
| LARKGSLKNGSMGSPVAQQPKKNN | 4.25 |
| LARKGSLKNGSMGSPVCQQPKKNN | 4.53 |
| LARKGSLKNGSMGSPVVQQPKKNN | 4.6 |
| LARKGSLKNGSMGSPVYQQPKKNN | 4.27 |
| LARKGSLKNGSMGSPVEQQPKKNN | 5.07 |
| LARKGSLKNGSMGSPVIQQPKKNN | 4.72 |
| LARKGSLKNGSMGSPVFQQPKKNN | 4.31 |
| LARKGSLKNGSMGSPVRQQPKKNN | 4.47 |
| LARKGSLKNGSMGSPVGQQPKKNN | 4.27 |
| LARKGSLKNGSMGSPVMQQPKKNN | 4.83 |
| LARKGSLKNGSMGSPVQQQPKKNN | 4.74 |
| LARKGSLKNGSMGSPVSQQPKKNN | 4.54 |
| LARKGSLKNGSMGSPVWQQPKKNN | 3.62 |
| LARKGSLKNGSMGSPVHQQPKKNN | 5.11 |
| LARKGSLKNGSMGSPVPQQPKKNN | 4.95 |
| LARKGSLKNGSMGSPVKQQPKKNN | 4.47 |
| LARKGSLKNGSMGSPVLQQPKKNN | 4.64 |
| LARKGSLKNGSMGSPVTQQPKKNN | 3.98 |
| LARKGSLKNGSMGSPVNQQPEKNN | 4.87 |
| LARKGSLKNGSMGSPVNQQPSKNN | 4.3 |
| LARKGSLKNGSMGSPVNQQPGKNN | 4.25 |
| LARKGSLKNGSMGSPVNQQPQKNN | 4.48 |
| LARKGSLKNGSMGSPVNQQPTKNN | 4.39 |

| Variant | protein stability index |
| --- | --- |
| LARKGSLKNGSMGSPVNQQPYKNN | 4 |
| LARKGSLKNGSMGSPVNQQPVKNN | 4.32 |
| LARKGSLKNGSMGSPVNQQPRKNN | 4.82 |
| LARKGSLKNGSMGSPVNQQPHKNN | 4.9 |
| LARKGSLKNGSMGSPVNQQPWKNN | 2.95 |
| LARKGSLKNGSMGSPVNQQPMKNN | 4.21 |
| LARKGSLKNGSMGSPVNQQPIKNN | 4.28 |
| LARKGSLKNGSMGSPVNQQPNKNN | 4.65 |
| LARKGSLKNGSMGSPVNQQPPKNN | 4.18 |
| LARKGSLKNGSMGSPVNQQPAKNN | 4.7 |
| LARKGSLKNGSMGSPVNQQPCKNN | 3.98 |
| LARKGSLKNGSMGSPVNQQPDKNN | 5.25 |
| LARKGSLKNGSMGSPVNQQPFKNN | 4.07 |
| LARKGSLKNGSMGSPVNQQPLKNN | 4.25 |
| LARKGSLKNGSMGSPVNIQPKKNN | 4.52 |
| LARKGSLKNGSMGSPVNGQPKKNN | 4.37 |
| LARKGSLKNGSMGSPVNSQPKKNN | 4.97 |
| LARKGSLKNGSMGSPVNMQPKKNN | 4.64 |
| LARKGSLKNGSMGSPVNFQPKKNN | 4.4 |
| LARKGSLKNGSMGSPVNHQPKKNN | 4.82 |
| LARKGSLKNGSMGSPVNPQPKKNN | 4.55 |
| LARKGSLKNGSMGSPVNCQPKKNN | 4.6 |
| LARKGSLKNGSMGSPVNKQPKKNN | 5.08 |
| LARKGSLKNGSMGSPVNAQPKKNN | 4.74 |

| Variant | protein stability index |
| --- | --- |
| LARKGSLKNGSMGSPVNRQPKKNN | 4 |
| LARKGSLKNGSMGSPVNNQPKKNN | 4.59 |
| LARKGSLKNGSMGSPVNLQPKKNN | 4.32 |
| LARKGSLKNGSMGSPVNWQPKKNN | 3.67 |
| LARKGSLKNGSMGSPVNEQPKKNN | 5.18 |
| LARKGSLKNGSMGSPVNDQPKKNN | 5.17 |
| LARKGSLKNGSMGSPVNYQPKKNN | 4.17 |
| LARKGSLKNGSMGSPVNVQPKKNN | 4.64 |
| LARKGSLKNGSMGSPVNTQPKKNN | 5.01 |
| LARKGSLKNGSMGSPMNQQPKKNN | 4.62 |
| LARKGSLKNGSMGSPRNQQPKKNN | 4.69 |
| LARKGSLKNGSMGSPTNQQPKKNN | 4.75 |
| LARKGSLKNGSMGSPLNQQPKKNN | 4.64 |
| LARKGSLKNGSMGSPANQQPKKNN | 4.69 |
| LARKGSLKNGSMGSPFNQQPKKNN | 3.91 |
| LARKGSLKNGSMGSPHNQQPKKNN | 5.1 |
| LARKGSLKNGSMGSPYNQQPKKNN | 3.87 |
| LARKGSLKNGSMGSPGNQQPKKNN | 4.75 |
| LARKGSLKNGSMGSPENQQPKKNN | 5.39 |
| LARKGSLKNGSMGSPQNQQPKKNN | 5 |
| LARKGSLKNGSMGSPKNQQPKKNN | 4.14 |
| LARKGSLKNGSMGSPINQQPKKNN | 4.79 |
| LARKGSLKNGSMGSPNNQQPKKNN | 4.4 |
| LARKGSLKNGSMGSPSNQQPKKNN | 4.68 |

| Variant | protein stability index |
| --- | --- |
| LARKGSLKNGSMGSPDNQQPKKNN | 4.85 |
| LARKGSLKNGSMGSPPNQQPKKNN | 4.89 |
| LARKGSLKNGSMGSPCNQQPKKNN | 4.23 |
| LARKGSLKNGSMGSPWNQQPKKNN | 4.01 |
| LARKGSLKNGSMGSDVNQQPKKNN | 5.45 |
| LARKGSLKNGSMGSQVNQQPKKNN | 5.26 |
| LARKGSLKNGSMGSAVNQQPKKNN | 4.42 |
| LARKGSLKNGSMGSWVNQQPKKNN | 4.27 |
| LARKGSLKNGSMGSHVNQQPKKNN | 4.24 |
| LARKGSLKNGSMGSFVNQQPKKNN | 4.2 |
| LARKGSLKNGSMGSNVNQQPKKNN | 4.42 |
| LARKGSLKNGSMGSCVNQQPKKNN | 4.48 |
| LARKGSLKNGSMGSMVNQQPKKNN | 4.66 |
| LARKGSLKNGSMGSTVNQQPKKNN | 4.95 |
| LARKGSLKNGSMGSLVNQQPKKNN | 4.59 |
| LARKGSLKNGSMGSVVNQQPKKNN | 4.62 |
| LARKGSLKNGSMGSEVNQQPKKNN | 4.53 |
| LARKGSLKNGSMGSIVNQQPKKNN | 4.66 |
| LARKGSLKNGSMGSKVNQQPKKNN | 4.34 |
| LARKGSLKNGSMGSSVNQQPKKNN | 4.26 |
| LARKGSLKNGSMGSRVNQQPKKNN | 3.8 |
| LARKGSLKNGSMGSGVNQQPKKNN | 5 |
